Experimental data: patent publication US20190248902A1 (published 2019)
Residue numbers refer to the chain shown, from its start. Blank lines part the entries; values can stand above or below the binder they belong to.

Experiments:
[1] = target: T1, human ASGR-1 (wild type) (human, UniProt P07306 1-291); experiment: FACS ratio: 65C12 geomean / this mAb geomean
T1 construct: also called wt ASGR1; huASGR-1
T1 sequence: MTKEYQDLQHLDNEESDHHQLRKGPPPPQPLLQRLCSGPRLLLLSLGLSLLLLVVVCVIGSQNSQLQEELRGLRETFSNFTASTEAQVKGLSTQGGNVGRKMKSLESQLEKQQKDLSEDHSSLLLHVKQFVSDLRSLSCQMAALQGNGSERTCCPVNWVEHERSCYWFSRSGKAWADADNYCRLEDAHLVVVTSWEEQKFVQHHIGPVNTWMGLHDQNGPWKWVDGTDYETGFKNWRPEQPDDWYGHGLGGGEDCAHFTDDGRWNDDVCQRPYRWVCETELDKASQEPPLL
Experimental: (§1) Mutant hASGR-1 variants were constructed such that non-arginine residues were changed to arginine and where wild type arginine residues were mutated to glutamic acid. Each mutant hASGR-1 sequence was then cloned into a mammalian expression vector and used to transiently transfect CHOs cells. The ability of human ASGR-1-specific, ligand competing antibodies to bind to the mutant hASGR-1 proteins was assessed by FACS as described above.
(§2) Antibodies were tested for binding to the individual mutant and wild type ASGR-1 constructs using normalized antibody concentrations (5 ug/ml). CHO—S cells transiently expressing the appropriate mutated or non-mutated antigen of interest were mixed with antibody sample or controls, incubated for 1 hour at 4° C., and then washed twice. Cells with bound antibody were then incubated with Alexa Fluor® 647 IgG Fc fragment-specific detection antibody and 7-AAD viability stain for 15 minutes at 4° C., washed once and resuspended in FACS buffer. Samples were analyzed using a BD Accuri™ Flow Cytometer and an Intellicyt HyperCyt Autosampler. As a negative control, supernatants and controls were also screened against CHO—S cells transfected with empty parental vector (referred to as mock). […] Because mutant hASGR-1 expression levels varied relative to each other, sample binding data for each construct was normalized for expression by dividing the binding data from an antibody not affected by the mutations (e.g., 65C12) by the binding values of each test antibody on a given mutant construct. Also, because the antibody binding affinities varied amongst the samples, the expression corrected data (above) was further normalized by comparing test antibody binding on each mutant construct to wild type hASGR-1. Identification of specific mutations that affected test antibody binding was performed by an interquartile range (IQR) analysis to determine statistical outliers. A mutation was identified as a “hit” if the calculated values were >3× the IQR (above the 3rd quartile/upper fence) for a given mutant construct.

[2] = target: T2, human ASGR-1 mutant construct H203 (human, UniProt P07306 1-291); experiment: FACS ratio: 65C12 geomean / this mAb geomean
T2 construct: Arg/Glu scanning: non-arginine residues were changed to arginine; Transiently expressed on CHO-S cells
T2 sequence: T1 sequence with H203R
Experimental: as §1, §2

[3] = target: T2, human ASGR-1 mutant construct H203; experiment: FACS ratio: H203 normalized value / wt normalized value
Experimental: (§3) The ability of human ASGR-1-specific, ligand competing antibodies to bind to the mutant hASGR-1 proteins was assessed by FACS as described above.
(§4) Antibodies were tested for binding to the individual mutant and wild type ASGR-1 constructs using normalized antibody concentrations (5 ug/ml). CHO—S cells transiently expressing the appropriate mutated or non-mutated antigen of interest were mixed with antibody sample or controls, incubated for 1 hour at 4° C., and then washed twice. Cells with bound antibody were then incubated with Alexa Fluor® 647 IgG Fc fragment-specific detection antibody and 7-AAD viability stain for 15 minutes at 4° C., washed once and resuspended in FACS buffer. Samples were analyzed using a BD Accuri™ Flow Cytometer and an Intellicyt HyperCyt Autosampler. As a negative control, supernatants and controls were also screened against CHO—S cells transfected with empty parental vector (referred to as mock). […] Because mutant hASGR-1 expression levels varied relative to each other, sample binding data for each construct was normalized for expression by dividing the binding data from an antibody not affected by the mutations (e.g., 65C12) by the binding values of each test antibody on a given mutant construct. Also, because the antibody binding affinities varied amongst the samples, the expression corrected data (above) was further normalized by comparing test antibody binding on each mutant construct to wild type hASGR-1. Identification of specific mutations that affected test antibody binding was performed by an interquartile range (IQR) analysis to determine statistical outliers. A mutation was identified as a “hit” if the calculated values were >3× the IQR (above the 3rd quartile/upper fence) for a given mutant construct. Although IQR analysis was used here to determine signifance and identify hits, one skilled in the art will recognize that a number of methods could be employed in order to normalize the data (eg. using epitope-tagged constructs or other ASGR-1-binding antibodies directed against non-CBD epitopes).

[4] = target: T1, human ASGR-1 (wild type); experiment: FACS, transfected CHO-S cells, mAb 5 ug/ml
Experimental: as §3, §4

[5] = target: T2, human ASGR-1 mutant construct H203; experiment: FACS, transfected CHO-S cells, mAb 5 ug/ml
Experimental: as §3, §4

Expression Normalization to mAb 65C12 [1]: 1.58
Expression Normalization to mAb 65C12 [2]: 15.2
Normalization to wt ASGR1 Binding [3]: 9.63
FACS Binding Geomean [4]: 35600
FACS Binding Geomean [5]: 1700
B1: 4B3 (antibody, V domains shown)
VH: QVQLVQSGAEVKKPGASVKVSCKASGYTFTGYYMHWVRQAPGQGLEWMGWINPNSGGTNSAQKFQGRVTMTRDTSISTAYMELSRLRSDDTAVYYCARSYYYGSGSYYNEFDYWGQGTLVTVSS
VL: SYELTQPPSVSVSPRQTVSITCSGDKLGDKYACWYQQKPGQSPVLVIYQDRKRPSGIPERFSGSNSGNTATLTISGTQAMDEADYYCQAWDNNTVIFGGGTKLTVL
notes: mAb

Expression Normalization to mAb 65C12 [1]: 1.89
Expression Normalization to mAb 65C12 [2]: 18.8
Normalization to wt ASGR1 Binding [3]: 9.95
FACS Binding Geomean [4]: 29600
FACS Binding Geomean [5]: 1370
B2: 60D2 (antibody, V domains shown)
VH: EVQLVESGGGLVQPGGSLRLSCGASGFTFSSYSMNWVRQAPGKGLEWVSYISESSNIIYYTDSVKGRFTISRDNAMNSLYLQMNSLRDEDTAVYYCARADTPMVLYFYGMDVWGQGTTVTVSS
VL: B1 VL with R15G, V18A, D25N, C33S, K38R, R51N, A79T, I96V
notes: mAb

Expression Normalization to mAb 65C12 [1]: 2.38
Expression Normalization to mAb 65C12 [2]: 2.65
Normalization to wt ASGR1 Binding [3]: 1.11
FACS Binding Geomean [4]: 23500
FACS Binding Geomean [5]: 9740
B3: 151B9 (antibody, V domains shown)
VH: EVQLLESGGGLVQPGGSLRLSCAASGFTFSSYAMSWVRQAPGKGLEWVSVISGGGSSTYYADSVKGRFTISRDNSKNTLYLQMNSLRAEDTAVYYCAKWRGNPTDYGMDVWGQGTTVTVSS
VL: B1 VL with R15G, V18A, T21A, K26N, C33S, R51S, T77I, N92S, N93S, I96V
notes: mAb

Expression Normalization to mAb 65C12 [1]: 2.01
Expression Normalization to mAb 65C12 [2]: 19.1
Normalization to wt ASGR1 Binding [3]: 9.53
FACS Binding Geomean [4]: 27900
FACS Binding Geomean [5]: 1350
B4: 59F2 (antibody, V domains shown)
VH: B2 VH with E53G, M76K
VL: B1 VL with R15G, V18A, C33S, K38R, R51N, I96V
notes: mAb

Expression Normalization to mAb 65C12 [1]: 1.89
Expression Normalization to mAb 65C12 [2]: 17.5
Normalization to wt ASGR1 Binding [3]: 9.25
FACS Binding Geomean [4]: 29600
FACS Binding Geomean [5]: 1470
B5: 65E9 (antibody, V domains shown)
VH: not shown
VL: B1 VL with R15G, V18A, D29N, A32D, C33Y, N93S, I96V
notes: mAb

Expression Normalization to mAb 65C12 [1]: 1.5
Expression Normalization to mAb 65C12 [2]: 17.1
Normalization to wt ASGR1 Binding [3]: 11.4
FACS Binding Geomean [4]: 37300
FACS Binding Geomean [5]: 1510
B6: 50G9 (antibody, V domains shown)
VH: QVQLVESGGGVVQPGRSLRLSCAASGFIFSSYGMHWVRQAPGKGLEWVAVISQDGIIRYYADSVKGRFTISRDNSKNTLYLQMNSLRAEDTAVYYCARDVKQWLVRTYGMDVWGQGTTVTVSS
VL: SYELTQPPSVSVSPGQTASITCSGDKLGDKYACWYQQKPGQSPVLVIYQDSKRPSGIPERFSGSNSGNTATLTISGTQARDEAEYYCQARNSRRGVFGGGTRLTVL
notes: mAb

Expression Normalization to mAb 65C12 [1]: 2
Expression Normalization to mAb 65C12 [2]: 2.45
Normalization to wt ASGR1 Binding [3]: 1.22
FACS Binding Geomean [4]: 28000
FACS Binding Geomean [5]: 10500
B7: 72F5 (antibody, V domains shown)
VH: EVQLLESGGGLVQPGGSLRLSCAASGFTFSSYAMIWVRQAPGKGLEWVSTISGSGGYTYSADSVKGRFTISRDNSKNTLYLQMNSLRAEDTAVYYCARRIAVTGTEWYDPWGQGTLVTVSS
VL: DIQMTQSPSSLSASVGDRVIIPCRASQNISSYLNWYQQKPGKAPKLLIYAASSLQSGVPSRFSGSGSGTDFTLTISSLQPEDFATYSCQQTYSTPTFGQGTRLDIN
notes: mAb

Expression Normalization to mAb 65C12 [1]: 1.45
Expression Normalization to mAb 65C12 [2]: 17
Normalization to wt ASGR1 Binding [3]: 11.7
FACS Binding Geomean [4]: 38700
FACS Binding Geomean [5]: 1520
B8: 60E8 (antibody, V domains shown)
VH: QVQLQESGPGLVRPSATLSLTCTVSGGSISRSSYYWGWIRQPPGKGLEWIGSIYYSGSASYNPSLKSRVTISVDTSENQFSLRLSSVTAADTAVYYCARLDSGWSFDYWGQGTLVTVSS
VL: DIQMTQSPSSLSASVGDRVTFTCRASQGIRNDLGWFQQKPGKAPKRLIYAASSLQSGVPSRFSGSGSGTEFTLTISSLQPEDFATYYCLQHSSYPLTFGGGTKVEIK
notes: mAb

Expression Normalization to mAb 65C12 [1]: 1.18
Expression Normalization to mAb 65C12 [2]: 1.26
Normalization to wt ASGR1 Binding [3]: 1.07
FACS Binding Geomean [4]: 47600
FACS Binding Geomean [5]: 20500
B9: 6G6 (antibody, V domains shown)
VH: QVQLVQSGAEVRKPGASVKVSCKASGYTFTNYDINWVRQATGQGPEWMGWMHPNSGNTGYAKKFQGRVTMTRNTSISAAYMVLSSLRSEDTAVYYCALSSGWYYFDYWGQGTLVTVSS
VL: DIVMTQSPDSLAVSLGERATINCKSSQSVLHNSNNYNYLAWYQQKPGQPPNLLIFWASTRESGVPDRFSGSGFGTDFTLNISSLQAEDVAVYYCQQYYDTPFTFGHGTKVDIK
notes: mAb

Expression Normalization to mAb 65C12 [1]: 1.55
Expression Normalization to mAb 65C12 [2]: 1.91
Normalization to wt ASGR1 Binding [3]: 1.23
FACS Binding Geomean [4]: 36100
FACS Binding Geomean [5]: 13500
B10: 32D6 (antibody, V domains shown)
VH: QVQLVESGGGVVQPGRSLRLSCAASGFTFSSYGMHWVRQAPGKGLEWVTVIWHDGSNAYYADSVKGRFTISRDNSKNTLYLQMNSLRAEDTAVYYCARENSSSYYFDYWGQGTLVTVSS
VL: DIQMTQSPSSLSTSVGDRVTITCRASQNIISYLNWYQQKPGKAPKLLMYVASRLQSGVPSRFSGSGSGTDFTLTISSLQAEDFATYYCQQSYSTPYTFGGGTKVAIK
notes: mAb

Expression Normalization to mAb 65C12 [1]: 2.18
Expression Normalization to mAb 65C12 [2]: 1.71
Normalization to wt ASGR1 Binding [3]: 0.786
FACS Binding Geomean [4]: 25800
FACS Binding Geomean [5]: 15100
B11: 29E2 (antibody, V domains shown)
VH: QVQLVESGGGVVQPGRSLRLSCAASGFTFSNCVMHWVRQAPGKGLEWVAVIWYDGSNKYYADSVKGRITISRDNSKNTLYLQMNSLRAEDTAVYYCAREEYSSGWYDYGMDVWGQGTTVTVSS
VL: DIQMTQSPSSLSASVGDRVTITCRASQAIRNDLGWYQQRPGKAPKRLIYAASSLQSGVPSRFSGSGSGTEFILTISSLQPEDFATYYCLQHYNYPRSFGQGTKLEIK
notes: mAb

Expression Normalization to mAb 65C12 [1]: 1.85
Expression Normalization to mAb 65C12 [2]: 1.84
Normalization to wt ASGR1 Binding [3]: 0.995
FACS Binding Geomean [4]: 30400
FACS Binding Geomean [5]: 14000
B12: 45B4 (antibody, V domains shown)
VH: B11 VH with N31D, I68F, E100R, W105L
VL: B8 VL with N31D, F36Y, S92Y, L96R, G100Q
notes: mAb
